For this assay, the target named is T1, Human insulin (Actrapid) (human).
T1 construct: On the chip it was coupled through the N-terminus (amine coupling) or the C-terminus (surface thiol coupling); also called free insulin; immobilized insulin
Kind of assay: SPR, immobilized insulin. (In general: Surface plasmon resonance follows binding to a sensor surface in real time, without labels.)

T1 sequence (chain, as listed by the source, chain 1 of 2): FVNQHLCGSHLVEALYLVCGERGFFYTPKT
T1 sequence (chain, as listed by the source, chain 2 of 2): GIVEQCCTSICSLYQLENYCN

For EAEDLQVGQVALGGGPGAGSLQPLALEGSLQ [C-peptide variant Glu11-Ala], the binding result is “no binding”. The entry for EAADLQVGQVALGGGPGAGSLQPLALAGSLQ [C-peptide variant with Glu3, 11 and 27 all exchanged for Ala] is “no binding”; for EAEDLQVGQVELGGGPGAGSLQPLALAGSLQ (also called Glu27Ala C-peptide analogue) [C-peptide variant Glu27-Ala] it is “no binding”.

The values above are taken from patent US20100216693A1 (published 2010).
